Common to all, as to assay: ELISA, His-PD1 on nickel plate, conjugate only control
For test [1], the target named is His tagged canine PD1 (Sino) (canine).
The target of test [2] is His tagged mouse PD1 (Sino) (mouse) (UniProt Q02242).
The target in test [3] is His tagged rat PD1 (Sino) (rat) (UniProt D3ZIN8).
The target of test [4] is His tagged rhesus monkey PD1 (Sino) (rhesus monkey) (UniProt B0LAJ2).

“And” between values parts separate entries of the source, which are not always exact repeats. Identical values can stand only once.

Chain of His tagged rhesus monkey PD1 (Sino) (rhesus monkey) (B0LAJ2 entry or part of it limits assumed, form in doubt): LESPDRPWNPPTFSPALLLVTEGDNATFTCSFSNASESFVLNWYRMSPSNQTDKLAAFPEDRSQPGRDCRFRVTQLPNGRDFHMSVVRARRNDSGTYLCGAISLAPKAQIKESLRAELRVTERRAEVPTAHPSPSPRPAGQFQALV
Chain of His tagged mouse PD1 (Sino) (mouse) (Q02242 25-167 limits assumed): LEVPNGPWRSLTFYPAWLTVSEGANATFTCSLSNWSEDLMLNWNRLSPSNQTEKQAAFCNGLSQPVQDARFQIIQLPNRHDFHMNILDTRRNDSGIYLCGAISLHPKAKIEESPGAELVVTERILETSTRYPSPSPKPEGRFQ
Chain of His tagged rat PD1 (Sino) (rat) (D3ZIN8 entry or part of it limits assumed, form in doubt): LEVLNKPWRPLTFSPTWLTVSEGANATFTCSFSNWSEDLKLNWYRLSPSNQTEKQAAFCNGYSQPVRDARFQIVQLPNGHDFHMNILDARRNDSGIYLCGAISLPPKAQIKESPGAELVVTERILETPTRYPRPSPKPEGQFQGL

As for “horseradish peroxidase-labeled anti-rabbit antibody (conjugate only control)”, the OD is 0.059 OD and 0.06 OD in test [1]; 0.066 OD and 0.064 OD in test [2]; 0.055 OD in test [3]; 0.063 OD and 0.058 OD in test [4].

Values taken from patent publication US20210236614A1.
